Key:
IL-6 = IL-6 (UniProt P05231 30-212); assay: electrochemiluminescence aptasensor (Apt-VSM/ITO electrode); 1 ng/mL IL-6, interference test; negligible ECL variation; Aptamer immobilized on VSM/ITO electrode, 0.5% BSA block, 0.1 M PBS rinse; binding buffer, pH and temperature not given in the material
TNF-alpha = TNF-alpha (Homo sapiens, UniProt P01375 77-233); assay: electrochemiluminescence aptasensor (Apt-VSM/ITO electrode); linear 0.1-200 pg/mL, LOD 0.089 pg/mL; Ru luminophore/TPrA; Aptamer immobilized on VSM/ITO electrode, 0.5% BSA block, 0.1 M PBS rinse; binding buffer, pH and temperature not given in the material; details: protein: commercial; chain copies: 3
Chain of TNF-alpha (P01375 77-233): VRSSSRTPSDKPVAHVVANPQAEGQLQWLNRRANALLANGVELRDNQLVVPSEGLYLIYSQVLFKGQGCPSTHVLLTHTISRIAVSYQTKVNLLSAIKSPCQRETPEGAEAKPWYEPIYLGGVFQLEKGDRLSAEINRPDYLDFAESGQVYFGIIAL

Chain of IL-6 (P05231 30-212): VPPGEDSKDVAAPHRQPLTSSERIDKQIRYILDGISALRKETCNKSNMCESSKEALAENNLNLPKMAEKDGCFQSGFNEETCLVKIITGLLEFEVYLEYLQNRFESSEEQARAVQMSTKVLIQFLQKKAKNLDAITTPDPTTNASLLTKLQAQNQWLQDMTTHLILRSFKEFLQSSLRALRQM

B1: TNF-alpha aptamer (ssDNA)
DNA: GCGCCACTACAGGGGAGCTGCCATTCGAATAGGTGGGCCGC
modifications: amino-modified (end not stated), coupled to GPTMS epoxy groups on VSM/ITO electrode
What does the source list for B1?
binding result (IL-6): no binding; binding result (TNF-alpha): binds
